From paper PMC3769244

Test: immunofluorescence, data not shown
Conditions: glycan lost; control: untreated

B1: CLN5: tunicamycin (protein)
parent chain: MAQEVDTAQGAEMRRGAGAARGRASWCWALALLWLAVVPGWSRVSGIPSRRHWPVPYKRFDFRPKPDPYCQAKYTFCPTGSPIPVMEGDDDIEVFRLQAPVWEFKYGDLLGHLKIMHDAIGFRSTLTGKNYTMEWYELFQLGNCTFPHLRPEMDAPFWCNQGAACFFEGIDDVHWKENGTLVQVATISGNMFNQMAKWVKQDNETGIYYETWNVKASPEKGAETWFDSYDCSKFVLRTFNKLAEFGAEFKNIETNYTRIFLYSGEPTYLGNETSVFGPTGNKTLGLAIKRFYYPFKPHLPTKEFLLSLLQIFDAVIVHKQFYLFYNFEYWFLPMKFPFIKITYEEIPLPIRNKTLSGL
- localisation_or_trafficking: changes
